Measured values: PMC6020066 (Science (New York, N.Y.), 2018)

Biological target: HA-GST-LC3B (UniProt Q9GZQ8 1-120)
Test: pull-down

B1: purified FLAG-NUFIP1-HA-ZNHIT3 complex (complex)
chain 1: not shown
chain 2: MASLKCSTVVCVICLEKPKYRCPACRVPYCSVVCFRKHKEQCNPETRPVEKKIRSALPTKTVKPVENKDDDDSIADFLNSDEEEDRVSLQNLKNLGESATLRSLLLNPHLRQLMVNLDQGEDKAKLMRAYMQEPLFVEFADCCLGIVEPSQNEES
binding result: binds
